Test results: paper PMC3408433, “Selective Cytotoxicity of Amidinopiperidine Based Compounds Towards Burkitt’s Lymphoma Cells Involves Proteasome Inhibition” (PLoS ONE, 2012)

Experiments:
Type in all cases: biochemical
Settings in all cases: other: substrate on purified human 20S proteasome; pH 8.0; 37.0 °C
[1] = substrate: Cc1cc(=O)oc2cc(NC(=O)[C@H](CCCNC(=N)N)NC(=O)CNC(=O)[C@@H](NC(=O)c3ccccc3)C(C)C)ccc12; experiment: Proteasome activity measurement, trypsin-like
Description: (§1) Suc-Leu-Leu-Val-Tyr-AMC, Bz-Val-Gly-Arg-AMC and Z-Leu-Leu-Glu-AMC (Bachem, Bubendorf, Switzerland) were used for the chymotrypsin-like, trypsin-like and caspase-like activites, respectively. Assay buffer consisted of TE buffer (20 mM Tris (pH = 8.0), 0.5 mM EDTA, 0.03% SDS). Substrate hydrolysis was continuously monitored at 37°C with an automated microplate reader (Tecan Safire^2). Measured fluorescence values (RFU) were plotted versus time with nonlinear regression to fit a Michaelis-Menten plot.
(§2) For the Ki determination, 25 µL of substrate at three concentrations and 25 µL of inhibitor of interest also at three different concentrations were added to the wells of a white microplate. The reaction was initiated with 50 µL of the enzyme in the assay buffer. Flourescence of the AMC release was continuously monitored at 420 nm with 320 nm excitation.
(§3) Km and Ki were calculated using SigmaPlot 11 (Enzyme Kinetics Module 1.3) and are presented as the mean of three independent experiments.

[2] = substrate: Cc1cc(=O)oc2cc(NC(=O)[C@H](Cc3ccc(O)cc3)NC(=O)[C@@H](NC(=O)[C@H](CC(C)C)NC(=O)[C@H](CC(C)C)NC(=O)CCC(=O)O)C(C)C)ccc12; experiment: Proteasome activity measurement, chymotrypsin-like
Description: as §1, §2, §3

[3] = substrate: Cc1cc(=O)oc2cc(NC(=O)[C@H](CCC(=O)O)NC(=O)[C@H](CC(C)C)NC(=O)[C@H](CC(C)C)NC(=O)OCc3ccccc3)ccc12; experiment: Proteasome activity measurement, caspase-like
Description: as §1, §2, §3

B1: trypsin-like activity of human 20S proteasome (Homo sapiens) (protein)
chain: TTIAGVVYKDGIVLGADTRATEGMVVADKNCSKIHFISPNIYCCGAGTAADTDMTTQLISSNLELHSLSTGRLPRVVTANRMLKQMLFRYQGYIGAALVLGGVDVTGPHLYSIYPHGSTDKLPYVTMGSGSLAAMAVFEDKFRPDMEEEEAKNLVSEAIAAGIFNDLGSGSNIDLCVISKNKLDFLRPYTVPNKKGTRLGRYRCEKGTTAVLTEKITPLEIEVLEETVQTMDTS
notes: purchased Boston Biochem, Inc
Km [1]: 44 ± 5 µM

B2: chymotrypsin-like activity of human 20S proteasome (Homo sapiens) (protein)
chain: TTTLAFKFRHGVIVAADSRATAGAYIASQTVKKVIEINPYLLGTMAGGAADCSFWERLLARQCRIYELRNKERISVAAASKLLANMVYQYKGMGLSMGTMICGWDKRGPGLYYVDSEGNRISGATFSVGSGSVYAYGVMDRGYSYDLEVEQAYDLARRAIYQATYRDAYSGGAVNLYHVREDGWIRVSSDNVADLHEKYSGSTP
notes: purchased Boston Biochem, Inc
Km [2]: 100 ± 12 µM

B3: caspase-like activity of human 20S proteasome (Homo sapiens) (protein)
chain: TTIMAVQFDGGVVLGADSRTTTGSYIANRVTDKLTPIHDRIFCCRSGSAADTQAVADAVTYQLGFHSIELNEPPLVHTAASLFKEMCYRYREDLMAGIIIAGWDPQEGGQVYSVPMGGMMVRQSFAIGGSGSSYIYGYVDATYREGMTKEECLQFTANALALAMERDGSSGGVIRLAAIAESGVERQVLLGDQIPKFAVATLPPA
notes: purchased Boston Biochem, Inc
Km [3]: 37 ± 9 µM
